Measurements taken from patent US7488592 (WASHINGTON UNIVERSITY, dated 2009).
Where a chain is given by its changes, count along the chain named.

What was measured:
FLAG-Erf2p = target: T1, FLAG-Erf2p (yeast (S. cerevisiae), UniProt Q06551 1-359); assay: co-purification on GSH-agarose from yeast extracts, anti-FLAG immunoblot
T1 construct: Expressed in yeast RJY543 (pESC) or in E. coli XL1 Blue (pFLAG-MAC operon fusion); also called FLAG-tagged Erf2p; yeast Erf2
T1 sequence: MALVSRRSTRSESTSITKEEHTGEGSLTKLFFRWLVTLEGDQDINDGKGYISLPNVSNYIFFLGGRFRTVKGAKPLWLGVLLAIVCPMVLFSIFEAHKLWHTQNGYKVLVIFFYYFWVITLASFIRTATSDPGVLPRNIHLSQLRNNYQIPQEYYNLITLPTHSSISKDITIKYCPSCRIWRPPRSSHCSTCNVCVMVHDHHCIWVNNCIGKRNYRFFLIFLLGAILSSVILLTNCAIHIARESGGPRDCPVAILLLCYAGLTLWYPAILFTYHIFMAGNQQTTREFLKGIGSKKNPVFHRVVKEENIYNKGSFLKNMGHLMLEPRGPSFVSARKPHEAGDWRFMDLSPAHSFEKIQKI
Protocol: (§1) Expression of FLAG-Erf2p was determined by affinity purification on anti-FLAG antibody linked to agarose beads followed by an anti-FLAG immunoblot (bottom panel). (FIG. 6C) The Ras PAT activity of partially purified extracts of ERF2 and ERF4 wild type and mutant strains was assayed as described in Example 1.
(§2) Purification of Erf2p/Erf4p Complex—RJY543 yeast cells expressing GST-Erf4p along with FLAG-Erf2p or FLAG-Erf2p mutants (Erf2(H201A)_p, Erf2(C189S)p, Erf2(C203S) p) were solubilized in Y-PER® reagent as described above. *E. coli* cells expressing GST-Erf4p along with FLAG-Erf2p or FLAG-Erf2p mutants (Erf2(H201A)p, Erf2(C203S)p) were lysed by high pressure (25,000 p.s.i.) homogenization (Avestin) in 50 mM Tris-HCl, pH 7.4, 150 mM NaCl, 1 mM DTT, 1 mM EDTA, and 0.13 mM phenylmethylsulfonyl fluoride (Buffer A). […]
(§3) Immunoblotting—Proteins bound to the GSH-agarose beads were analyzed for the presence of both GST and FLAG peptide fusion proteins. GST fusion proteins were detected by immunoblotting with rabbit anti-GST (Molecular Probes) antibody and peroxidase-conjugated goat anti-rabbit secondary antibody (Sigma). FLAG-tagged proteins were detected on Western blots by probing with anti-FLAG® M5 monoclonal antibody (Sigma) and peroxidase-conjugated sheep anti-mouse secondary antibody (Amersham Biosciences).

FLAG-Erf2(C189S)p = target: T2, FLAG-Erf2(C189S)p (yeast (S. cerevisiae), UniProt Q06551 1-359); assay: co-purification on GSH-agarose from yeast extracts, immunoblot (FIG. 6B)
T2 construct: Loss-of-function mutant in the DHHC domain, expressed in yeast
T2 sequence: T1 sequence with C189S
Protocol: as §1, §2, §3

- binding result (FLAG-Erf2p): binds
- binding result (FLAG-Erf2(C189S)p): no binding
B1: GST-Erf4p (other)
chain: MCDSHQKEEDNANTSERALFFNYHEFSYSFYEDLGSEDAKPTEHDEDHKLCITHFPNVYAARGSAEFQVTRVVRVPRRFDESRSSLETPQFSTQLPGSEPAAIVGDDGTSFVRCGRYDIGDHVFGCSSVSPLSEYLSAAELAEVVHRVNGFLLREEGEVFGWRNLSGLLLDMLTGGLWSWVLGPLLSRPVFQESLALEQYVAQLNSPGGLLHERGVRLVLPRRSGCLSLDFVVPRPK
notes: also called yeast Erf4; YOL110W; not shown: glutathione S-transferase (GST) moiety fused in frame to the N-terminus; vector pEG(KG) in yeast, pFLAG-MAC operon fusio
